This note sets out measurements from article PMC8934638, “H3K36 methylation and DNA-binding both promote Ioc4 recruitment and Isw1b remodeler function”.

The target of series [1] is T1, Ioc4 full-length (Saccharomyces cerevisiae, UniProt Q04213 1-475).
T1 sequence: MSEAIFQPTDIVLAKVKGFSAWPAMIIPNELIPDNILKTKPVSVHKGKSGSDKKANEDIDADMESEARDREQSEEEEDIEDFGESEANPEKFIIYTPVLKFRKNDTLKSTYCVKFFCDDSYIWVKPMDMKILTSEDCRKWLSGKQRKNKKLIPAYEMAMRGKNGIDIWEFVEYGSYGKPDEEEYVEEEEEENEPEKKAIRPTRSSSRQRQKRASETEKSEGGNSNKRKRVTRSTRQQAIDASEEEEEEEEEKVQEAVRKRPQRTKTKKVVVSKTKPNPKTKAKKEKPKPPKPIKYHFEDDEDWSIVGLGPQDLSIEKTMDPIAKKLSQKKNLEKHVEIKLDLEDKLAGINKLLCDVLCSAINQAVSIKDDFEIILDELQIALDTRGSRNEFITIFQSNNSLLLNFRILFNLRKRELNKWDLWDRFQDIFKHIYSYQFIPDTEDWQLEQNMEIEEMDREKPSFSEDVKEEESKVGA
Briefly: EMSA. The note with it: 5% native PAGE (37.5:1) in 0.4x TBE, 2% glycerol, binding buffer, pH and temperature not given (as in …). Background: Mobility shift assays separate free from complexed probe on a gel.

Series [2] deals with T2, Ioc4 PWWP domain (Saccharomyces cerevisiae, UniProt Q04213 1-178).
T2 sequence: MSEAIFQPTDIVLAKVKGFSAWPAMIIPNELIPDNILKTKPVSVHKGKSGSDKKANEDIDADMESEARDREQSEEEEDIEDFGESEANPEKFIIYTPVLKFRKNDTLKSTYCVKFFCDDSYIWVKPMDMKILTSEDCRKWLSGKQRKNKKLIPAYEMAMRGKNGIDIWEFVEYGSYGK
Briefly: EMSA. Particulars: 5% native PAGE (37.5:1) in 0.4x TBE, 2% glycerol, binding buffer, pH and temperature not given (as in …).

The test system of series [3] is Isw1b complex (Isw1, Ioc2, Ioc4) (Saccharomyces cerevisiae). Briefly: EMSA. Particulars: peptide-ligated H3 (T45C), 5% native PAGE (37.5:1) in 0.4x TBE, 2% glycerol, binding buffer, pH and temperature not given (as in …).
Series [4] deals with T2, Ioc4 PWWP domain. Briefly: EMSA; bound equally to the AT-rich substrate; EMSA; 15 fmol NCP (30 fmol unmodified NCP) per reaction; 5% native PAGE (37.5:1) in 0.4x TBE, 2% glycerol; binding buffer, pH and temperature not given (as in cited work). The note with it: protein: recombinant; tags: N-terminal 6xHis; label: Cy5 on sense strand; blunt.
Series [5] has as its target T1, Ioc4 full-length. Briefly: EMSA; EMSA; 15 fmol NCP (30 fmol unmodified NCP) per reaction; 5% native PAGE (37.5:1) in 0.4x TBE, 2% glycerol; binding buffer, pH and temperature not given (as in cited work). Particulars: protein: recombinant; tags: N-terminal 6xHis-MBP; label: Cy5 on sense strand; blunt.
Series [6] has as its target T2, Ioc4 PWWP domain. Described as above. Particulars: protein: recombinant; tags: N-terminal 6xHis; label: Cy5 on sense strand; blunt.
Where [7] appears, read: peptide-ligated H3 (T45C), K36me3, 15 fmol NCP (30 fmol unmodified NCP) per reaction.
The mark [8] stands for this setting: peptide-ligated H3 (T45C), K36me0, 15 fmol NCP (30 fmol unmodified NCP) per reaction.
Where [9] appears, read: 15 fmol NCP (30 fmol unmodified NCP) per reaction.

What is called Kd is the free concentration of one partner at which half of the binding sites on the other are occupied at equilibrium, for simple one-to-one binding. Turning to NCP H3K36me3, 147 bp 601, the Kd was determined as 6.7 nM in series [1] (setting [7]); 120 nM in series [2] (setting [7]); 4.8 nM in series [3] (K36me3, 15 fmol NCP (30 fmol unmodified NCP) per reaction).
Consider NCP unmodified, 147 bp 601, for which the Kd in series [2] (unmodified histones, 15 fmol NCP (30 fmol unmodified NCP) per reaction) turned out to be 450 nM.
As to NCP H3K36me0, 147 bp 601, the Kd in series [1] (setting [8]) amounted to 11 nM; in series [2] (setting [8]), 400 nM; in series [3] (K36me0, 15 fmol NCP (30 fmol unmodified NCP) per reaction), 57.3 nM.
Turning to RNA:DNA hybrid, the values for the Kd in series [1] (setting [9]) and in series [2] (setting [9]) were 55 nM and 760 nM, respectively.

B1: dsRNA 25 bp GC rich (dsRNA)
RNA 1: CCCGGUGCCGAGGCCGCUCAAUUGG
RNA 2: CCAAUUGAGCGGCCUCGGCACCGGG
As to B1, the binding result in series [4] was “binds”.

B2: dsRNA 30 bp (AT rich) (dsRNA)
RNA 1: GGCAAGGUCGCUGUUCAAUACAUGCACAGG
RNA 2: CCUGUGCAUGUAUUGAACAGCGACCUUGCC
Take B2: the values for the Kd in series [5] and in series [6] were 56 nM and 1800 nM, respectively.

B3: dsDNA 30 bp (601-derived EMSA probe) (dsDNA)
DNA 1: GGCAAGGTCGCTGTTCAATACATGCACAGG
DNA 2: CCTGTGCATGTATTGAACAGCGACCTTGCC
As to B3, the Kd turned out to be 34 nM in series [5] and 810 nM in series [6].
